# Changes are numbered by the printed parent chain.
# T1: murine FAP expressed on HEK293 cells (mouse, UniProt P97321 1-761)
# T1 construct: whole, on cells; Also used as cell lysate in ELISA; also called muFAP; mouse FAP
# T1 sequence (looked up): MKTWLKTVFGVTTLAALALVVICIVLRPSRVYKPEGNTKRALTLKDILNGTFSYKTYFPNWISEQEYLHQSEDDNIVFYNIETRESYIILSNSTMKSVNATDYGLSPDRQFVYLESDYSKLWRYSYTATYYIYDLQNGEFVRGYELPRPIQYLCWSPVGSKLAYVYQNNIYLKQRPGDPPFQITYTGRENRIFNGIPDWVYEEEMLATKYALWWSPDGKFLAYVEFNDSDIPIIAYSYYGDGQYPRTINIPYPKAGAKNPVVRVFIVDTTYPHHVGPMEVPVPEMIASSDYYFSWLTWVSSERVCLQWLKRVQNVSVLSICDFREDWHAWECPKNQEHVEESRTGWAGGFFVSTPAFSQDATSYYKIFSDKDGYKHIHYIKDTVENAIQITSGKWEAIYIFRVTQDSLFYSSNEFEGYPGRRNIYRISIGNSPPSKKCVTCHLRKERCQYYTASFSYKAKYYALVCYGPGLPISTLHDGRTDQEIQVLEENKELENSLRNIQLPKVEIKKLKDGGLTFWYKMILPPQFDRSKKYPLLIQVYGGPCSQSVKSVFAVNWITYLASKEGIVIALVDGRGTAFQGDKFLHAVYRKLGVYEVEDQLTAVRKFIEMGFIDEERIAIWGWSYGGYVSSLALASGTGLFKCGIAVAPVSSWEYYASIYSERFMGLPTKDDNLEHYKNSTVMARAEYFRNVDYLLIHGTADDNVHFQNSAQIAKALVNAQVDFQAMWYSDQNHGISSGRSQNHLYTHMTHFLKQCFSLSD
# T2: recombinant human FAP (R&D systems) (human, UniProt Q12884 26-760)
# T2 construct: Bought protein amine-coupled at low density on a CM5 chip for SPR; also called rhuFAP; rFAP
# T2 sequence (looked up): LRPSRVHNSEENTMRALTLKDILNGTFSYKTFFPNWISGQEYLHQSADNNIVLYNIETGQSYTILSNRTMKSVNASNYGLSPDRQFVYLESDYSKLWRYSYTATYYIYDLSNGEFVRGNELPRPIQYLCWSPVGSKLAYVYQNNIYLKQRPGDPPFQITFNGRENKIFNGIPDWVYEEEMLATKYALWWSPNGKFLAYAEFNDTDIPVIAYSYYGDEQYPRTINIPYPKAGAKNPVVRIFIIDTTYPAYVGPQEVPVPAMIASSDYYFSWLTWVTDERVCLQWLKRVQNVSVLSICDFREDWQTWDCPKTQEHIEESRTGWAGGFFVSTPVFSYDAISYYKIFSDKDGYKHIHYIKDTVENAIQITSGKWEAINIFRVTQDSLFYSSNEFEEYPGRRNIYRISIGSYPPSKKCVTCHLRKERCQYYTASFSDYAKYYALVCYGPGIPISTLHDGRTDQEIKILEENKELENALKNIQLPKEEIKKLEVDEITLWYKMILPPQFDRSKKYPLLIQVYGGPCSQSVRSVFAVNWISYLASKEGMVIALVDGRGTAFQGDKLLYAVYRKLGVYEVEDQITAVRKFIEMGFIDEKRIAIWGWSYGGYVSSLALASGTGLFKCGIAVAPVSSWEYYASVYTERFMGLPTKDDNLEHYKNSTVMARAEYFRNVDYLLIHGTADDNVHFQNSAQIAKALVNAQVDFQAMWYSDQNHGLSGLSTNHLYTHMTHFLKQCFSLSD
# T3: human Fibroblast Activation Protein (FAP) expressed on cells (human, UniProt Q12884 1-760)
# T3 construct: whole, on cells; also called huFAP; human FAP
# T3 sequence (looked up): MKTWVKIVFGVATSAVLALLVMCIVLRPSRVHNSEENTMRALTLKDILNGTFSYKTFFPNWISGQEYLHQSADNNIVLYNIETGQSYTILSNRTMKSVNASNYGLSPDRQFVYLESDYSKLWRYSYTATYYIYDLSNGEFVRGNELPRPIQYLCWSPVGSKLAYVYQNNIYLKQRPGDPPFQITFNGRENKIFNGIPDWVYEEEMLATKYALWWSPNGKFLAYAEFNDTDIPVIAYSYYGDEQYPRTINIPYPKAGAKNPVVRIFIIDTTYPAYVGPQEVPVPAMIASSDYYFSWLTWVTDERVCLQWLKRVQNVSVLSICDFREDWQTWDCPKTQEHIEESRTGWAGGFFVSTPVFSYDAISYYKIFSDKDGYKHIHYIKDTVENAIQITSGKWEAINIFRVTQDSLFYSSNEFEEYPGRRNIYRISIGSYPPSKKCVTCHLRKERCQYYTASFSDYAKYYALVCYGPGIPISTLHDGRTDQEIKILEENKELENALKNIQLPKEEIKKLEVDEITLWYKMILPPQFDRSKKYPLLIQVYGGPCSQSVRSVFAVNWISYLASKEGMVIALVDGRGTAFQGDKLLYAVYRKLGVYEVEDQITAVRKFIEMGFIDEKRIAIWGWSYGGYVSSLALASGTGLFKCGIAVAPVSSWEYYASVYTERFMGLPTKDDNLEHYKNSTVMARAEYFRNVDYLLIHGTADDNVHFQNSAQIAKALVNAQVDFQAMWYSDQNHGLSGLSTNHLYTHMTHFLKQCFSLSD
# B1: ESC14 Fab fragment (Fab, V domains shown)
# VH: EVQLVQSGAEVKKPGASVKVSCKASGYTFTSYGISWVRQAPGQGLEWMGWISAYNGNTNYAQKLQGRVTMTTDTSTSTAYMELRSLRSDDTAVYYCARDWSRSGYYLPDYWGQGTLVTVSS
# VL: DVVMTQSPLSLPVTLGQPASISCRSSQSLLHSNGYNYLDWYLQRPGQSPHLLIFLGSNRASGVPDRFSGSGSGTDFTLKISRVEAEDVGIYYCMQALQTPPTFGQGTKVEIK
# notes: Fully human Fab from a non-immunized phage library, made in E. coli TG-1, His-tag purified and detected by its myc tag; also called Fab ESC14
# B2: ESC14 IgG1 (antibody, V domains shown)
# VH: B1 VH
# VL: B1 VL
# notes: Variable domains cloned into a full human IgG1 format and produced in NS0 cells
# B3: ESC11 IgG1 (antibody, V domains shown)
# VH: QVQLQESGPGLVKPSETLSLTCTVSGGSISSNNYYWGWIRQTPGKGLEWIGSIYYSGSTNYNPSLKSRVTISVDTSKNQFSLKLSSVTAADTAVYYCARGARWQARPATRIDGVAFDIWGQGTMVTVSS
# VL: ETTLTQSPGTLSLSPGERATLSCRASQTVTRNYLAWYQQKPGQAPRLLMYGASNRAAGVPDRFSGSGSGTDFTLTISRLEPEDFAVYYCQQFGSPYTFGQGTKVEIK
# notes: Variable domains cloned into a full human IgG1 format (modified pEE12.4 vector) and produced in NS0 cells; also called ESC11 DyLight 488
# B4: ESC11 Fab fragment (Fab, V domains shown)
# VH: B3 VH with Q1H
# VL: B3 VL
# notes: Fully human Fab from a non-immunized phage library, made in E. coli TG-1, His-tag purified and detected by its myc tag; also called Fab ESC11
# Legend:
# [1] = molecular target: T4, human DPPIV/CD26 expressed on HEK293 cells (human, UniProt P27487 1-766); assay: ELISA, Fab at 100 nM on plates coated with cell lysate
# T4 construct: whole, on cells; also called huCD26; dipeptidyl peptidase IV
# T4 sequence (P27487 whole entry): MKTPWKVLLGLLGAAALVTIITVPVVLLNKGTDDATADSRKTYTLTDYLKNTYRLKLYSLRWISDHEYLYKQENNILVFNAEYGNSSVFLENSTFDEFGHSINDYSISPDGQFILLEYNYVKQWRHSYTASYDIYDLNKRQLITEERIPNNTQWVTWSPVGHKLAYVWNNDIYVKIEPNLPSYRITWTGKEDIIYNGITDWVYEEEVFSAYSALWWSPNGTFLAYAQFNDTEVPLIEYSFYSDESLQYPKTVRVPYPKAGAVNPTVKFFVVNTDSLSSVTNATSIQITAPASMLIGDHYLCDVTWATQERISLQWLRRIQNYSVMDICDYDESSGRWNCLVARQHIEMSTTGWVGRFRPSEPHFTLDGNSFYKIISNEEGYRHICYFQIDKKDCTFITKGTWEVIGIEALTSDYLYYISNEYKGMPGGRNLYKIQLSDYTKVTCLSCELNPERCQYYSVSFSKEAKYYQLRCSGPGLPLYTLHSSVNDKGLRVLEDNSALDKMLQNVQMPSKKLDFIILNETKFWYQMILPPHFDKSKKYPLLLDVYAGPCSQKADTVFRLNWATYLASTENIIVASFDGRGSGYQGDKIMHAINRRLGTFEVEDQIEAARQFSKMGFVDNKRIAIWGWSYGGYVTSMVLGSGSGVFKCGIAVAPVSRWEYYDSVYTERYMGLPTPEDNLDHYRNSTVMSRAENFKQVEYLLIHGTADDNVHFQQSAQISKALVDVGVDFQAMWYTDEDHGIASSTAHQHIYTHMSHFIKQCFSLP
# [2] = molecular target: T1, murine FAP expressed on HEK293 cells; assay: flow cytometry, serial dilutions on 293 muFAP+ cells (apparent KD)
# Description: The cells were then washed once with PBS, fixed for 20 min with 2% PFA on ice and bound antibody was detected with PE-conjugated anti-human IgG F(ab)′₂ (Jackson Immuno Research 109-116-097). Cells were analyzed on a FACScan (BD) cytometer and data was analysed with FlowJo. The apparent Kapp was calculated by fitting a dose-response curve using the following equitation f=Bmax*abs(x)/(Kd+abs(x))+Ns*x using SigmaPlot software (Systat Software Inc.).
# [3] = molecular target: T2, recombinant human FAP (R&D systems); assay: SPR (BIAcore T100), Fab injected over rhuFAP on a low-density CM5 chip
# Description: (§1) Binding analysis of Fabs to recombinant FAP (R&D systems) was performed on a BIAcore T100 instrument. rFAP was immobilized at low density on a CM5 sensor chip using amine coupling chemistry. […] Analysis of the binding curves and determination of rate constants was done using the nonlinear data analysis program BIAevaluation.
# [4] = molecular target: T2, recombinant human FAP (R&D systems); assay: SPR (BIAcore), Fab 6.25-200 nM injected over rhuFAP on a CM5 chip, heterogeneous ligand model [box under the right panel]
# Description: (§2) Purified Fabs were injected at the concentrations indicated in the figure on a rhuFAP-coated CM5 sensor chip. Values were corrected for binding to the reference flow cell. The black solid lines represent the theoretical curves for each Fab concentration calculated according to the heterogeneous ligand model and the indicated rate and affinity constants.
# as §1
# [5] = molecular target: T3, human Fibroblast Activation Protein …; assay: flow cytometry, serial dilutions on human FAP expressing cells (apparent KD)
# [6] = molecular target: T2, recombinant human FAP (R&D systems); assay: SPR (BIAcore), Fab 0.5-16 nM injected over rhuFAP on a CM5 chip, heterogeneous ligand model [box under the left panel]
# Description: as §2, §1
Binder,binding result [1],Kd [2],Kd [3],koff [4],kon [4],Kd [5],koff [6],kon [6]
B1,no binding (tested: 100 nM),251 nM,210 nM,0.125 s⁻¹,560000 M⁻¹ s⁻¹,,,
B2,,,,,,1.1 nM,,
B3,,,,,,1.1 nM,,
B4,no binding (tested: 100 nM),51 nM,10 nM,,,,0.017 s⁻¹,1.6e+06 M⁻¹ s⁻¹

# — patent publication US20120258119A1 (LUDWIG INSTITUTE FOR CANCER RESEARCH, published 2012)
